Data from US20230192767A1 (MEDIKINE, published 2023).

T1: human IL-2Rβ (CD122 protein, Fc Tag) (27-239) (human, UniProt P14784 27-239)
T1 construct: range 27-239; Bought protein; also called IL-2Rβ subunit; IL-2Rβ-Fc; not shown: Fc Tag of the bought protein (ACRObiosystems ILB-H5253)
T1 sequence (looked up): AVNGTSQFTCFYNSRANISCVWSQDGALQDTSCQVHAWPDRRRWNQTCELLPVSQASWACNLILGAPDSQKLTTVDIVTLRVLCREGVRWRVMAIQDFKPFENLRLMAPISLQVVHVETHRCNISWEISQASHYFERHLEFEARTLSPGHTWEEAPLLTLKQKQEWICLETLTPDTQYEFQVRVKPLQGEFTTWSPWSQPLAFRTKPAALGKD


Molecular target: T1, human IL-2Rβ (CD122 protein, Fc Tag) …
Assay: pH-dependent ELISA (Examples 9-12)
Procedure: For each peptide to be assayed, 16 ELISA plate wells were coated with neutravidin ([…] in PBS pH7.2) at 50 μL/well. The coated wells were incubated at 25° C. for at least 1 h.
The neutravidin was removed from each well. Three-hundred (300) μL of blocking buffer (1×PBS pH 7.2, 1% BSA) was added to each well of the neutravidin-coated plates. All plates were covered and maintained at 25° C. for 1 h or overnight at 4° C.
The biotinylated peptides were diluted to 1 μM in PBT pH 7.2 buffer and 50 uL was added to the appropriate 16 wells (8 for each binding pH). The plates were incubated at 25° C. for at least 1 h.

Binder | decrease in binding at pH 7.5 compared to pH 6.0 [%]
AVKRFRQDCRTAPVGTLCDL [SEQ ID NO 485] | > 15
FIAQKCRLAKVGELCDLGYS [SEQ ID NO 500] | > 15
VLCRIAQVGQLCEL [SEQ ID NO 526] | > 15
LLCRMAHLGELCDL [SEQ ID NO 448] | > 15
SVWQECSMAQVGDLCELHIG [SEQ ID NO 495] | > 15
YACRFAHVGDLCDL [SEQ ID NO 534] | > 15
LSCSIAQVGELCDL [SEQ ID NO 456] | > 15
EQTRSGYACRTAQVGELCDL [SEQ ID NO 535] | > 15
GLNPMIPGCQMAQVGELCEL [SEQ ID NO 463] | > 15
WQCRWAQVGELCDLSSENDN [SEQ ID NO 531] | > 15
NLRQNCRDAPVGELCDLEWI [SEQ ID NO 501] | > 15
FECWIAQVGELCDL [SEQ ID NO 411] | > 15
SWVNNCRMAQVGELCDLPNW [SEQ ID NO 460] | > 15
HQCRFAHVGELCDLFVFESY [SEQ ID NO 419] | > 15
KDCRTALIGDLCDLTLHLGG [SEQ ID NO 425] | > 15
RTMKQCSIAQVGELCDLAVT [SEQ ID NO 429] | > 15
EYFSHDQDCQTAQLGELCKM [SEQ ID NO 471] | > 15
TWAYDCRTAEVGELCDLPVQ [SEQ ID NO 551] | > 15
YDCQKAQLGELCDLRYSVRD [SEQ ID NO 536] | > 15
VTGWTYRDCRIANVGDLCEL [SEQ ID NO 507] | > 15
HECRFAQVGELCDL [SEQ ID NO 418] | > 15
QNCSTAKVGELCDLLMEGTE [SEQ ID NO 503] | > 15
YPCRMADVGELCDL [SEQ ID NO 569] | > 15
SDCSVANVGDLCNL [SEQ ID NO 515] | > 15
LDCRIAPLGELCDMFISAFN [SEQ ID NO 436] | > 15
WGRQECRFANVGDLCDVSNY [SEQ ID NO 491] | > 15

Binder | decrease in binding at pH 7.5 compared to pH 6.0 [%]
QVLKNCRLAHIGELCYLSER [SEQ ID NO 428] | > 15
YLCQVAGVGELCDLEESGRN [SEQ ID NO 566] | > 15
EDCWMAQVGQLCDL [SEQ ID NO 403] | > 15
GVKDGWEDCGIAQVGELCVL [SEQ ID NO 402] | > 15
KDCRLAYVGELCDLNRSDTI [SEQ ID NO 423] | > 15
TYAKLVNYCWTAQLGELCYL [SEQ ID NO 461] | > 15
QDCRMAHLGELCTL [SEQ ID NO 480] | > 50
QDCRMAQVGHLCDL [SEQ ID NO 481] | > 15
LEFMWIQDCGMAEVGELCEL [SEQ ID NO 468] | > 15
HDCWFAKLGELCDLRQMSFV [SEQ ID NO 416] | > 15
GRFYPCNMAQVGELCELMEY [SEQ ID NO 568] | > 15
LLSYPCRMAQVGELCDIAMK [SEQ ID NO 570] | > 15
QPCRNAHLGQLCDLQTWTNS [SEQ ID NO 505] | > 15
YDCRMAKVGDLCDLWSVWGR [SEQ ID NO 548] | > 15
KSCARAQVGELCYIEGAEDA [SEQ ID NO 430] | > 15
GYEPIMRACRNAQVGDLCDL [SEQ ID NO 506] | > 15
LECRLARLGDLCYL [SEQ ID NO 443] | > 15
QDCRLAHLGDLCDLWSPRQN [SEQ ID NO 477] | > 15
LRCRMAQVGDLCDLDRAWDW [SEQ ID NO 454] | > 15
QDCRKANVGELCYLDWDSPT [SEQ ID NO 476] | > 15
VDCWIAQLGELCELEDGRRQ [SEQ ID NO 524] | > 15
WPMSQFQKCATAQVGELCEL [SEQ ID NO 499] | > 15
VLEVLRQECRMAQVGELCDL [SEQ ID NO 494] | > 15
KACSIAQVGDLCEIYGFDDA [SEQ ID NO 421] | > 15
DEMQDCQIAQVGELCDLGLE [SEQ ID NO 470] | > 15
QDGAKLKECRVAQVGELCEF [SEQ ID NO 427] | > 15

Molecular target: T1, human IL-2Rβ (CD122 protein, Fc Tag) …
Assay: IC50, method not told in the paragraph

Binder | IC50 [µM]
YDCRIAQVGELCDL (also called Peptide E) [IL-2Rβ ligand SEQ ID NO: 58] | < 10
RWGDVGDLLMPL [IL-2Rβ ligand SEQ ID NO: 1043] | < 10
CGMAIGDLCMWT [IL-2Rβ ligand SEQ ID NO: 1084] | < 10
CCYQAMVGDLCDFC [IL-2Rβ ligand SEQ ID NO: 83] | < 10
QICDVGQWWPDCQV [IL-2Rβ ligand SEQ ID NO: 170] | < 10
NMCLVGDYWPSCQI [IL-2Rβ ligand SEQ ID NO: 169] | < 10
